Experimental data from PMC3799435, “Dissecting the interactions of SERRATE with RNA and DICER-LIKE 1 in Arabidopsis microRNA precursor processing” (Nucleic Acids Research, 2013).

Experiments:
DCL1;SE1-701 = DCL1;SE1-701 (Arabidopsis thaliana;Arabidopsis …, UniProt Q9SP32;Q9ZVD0 1-1909;1-701, |del702-720); assay: SPR; SE1-701 injected on preformed DCL1/RNA complex, 50 mM NaCl; as wild-type SE; SPR (Biacore T100): 20 mM Tris-HCl pH 7.0, 50 or 150 mM NaCl, 2 mM β-ME (0.005% P20 for SE variants); proteins 42-43 nM (Fig 2E), SE 20 nM (Fig 4), 16 nM DCL1 for complex; temperature not stated; settings: protein: recombinant;recombinant; tags: none (His6-StrepII-SUMOstar removed);N-terminal His6; vector also has inserted myc and Strep-tag II; label: 5'-biotin on strand 1; fork: 40 bp duplex; 20-nt 3' tail of strand 1 and 20-nt 5' tail of strand 2 unpaired; other end blunt
SE1-701 = biological target: T1, SE1-701 (Arabidopsis thaliana, UniProt Q9ZVD0 1-701, del702-720); assay: SPR; 50 mM NaCl, 20 nM; as wild-type SE; SPR (Biacore T100): 20 mM Tris-HCl pH 7.0, 50 or 150 mM NaCl, 2 mM β-ME (0.005% P20 for SE variants); proteins 42-43 nM (Fig 2E), SE 20 nM (Fig 4), 16 nM DCL1 for complex; temperature not stated; settings: protein: recombinant; tags: N-terminal His6; vector also has inserted myc and Strep-tag II; label: 5'-biotin on strand 1; fork: 40 bp duplex; 20-nt 3' tail of strand 1 and 20-nt 5' tail of strand 2 unpaired; other end blunt
T1 sequence: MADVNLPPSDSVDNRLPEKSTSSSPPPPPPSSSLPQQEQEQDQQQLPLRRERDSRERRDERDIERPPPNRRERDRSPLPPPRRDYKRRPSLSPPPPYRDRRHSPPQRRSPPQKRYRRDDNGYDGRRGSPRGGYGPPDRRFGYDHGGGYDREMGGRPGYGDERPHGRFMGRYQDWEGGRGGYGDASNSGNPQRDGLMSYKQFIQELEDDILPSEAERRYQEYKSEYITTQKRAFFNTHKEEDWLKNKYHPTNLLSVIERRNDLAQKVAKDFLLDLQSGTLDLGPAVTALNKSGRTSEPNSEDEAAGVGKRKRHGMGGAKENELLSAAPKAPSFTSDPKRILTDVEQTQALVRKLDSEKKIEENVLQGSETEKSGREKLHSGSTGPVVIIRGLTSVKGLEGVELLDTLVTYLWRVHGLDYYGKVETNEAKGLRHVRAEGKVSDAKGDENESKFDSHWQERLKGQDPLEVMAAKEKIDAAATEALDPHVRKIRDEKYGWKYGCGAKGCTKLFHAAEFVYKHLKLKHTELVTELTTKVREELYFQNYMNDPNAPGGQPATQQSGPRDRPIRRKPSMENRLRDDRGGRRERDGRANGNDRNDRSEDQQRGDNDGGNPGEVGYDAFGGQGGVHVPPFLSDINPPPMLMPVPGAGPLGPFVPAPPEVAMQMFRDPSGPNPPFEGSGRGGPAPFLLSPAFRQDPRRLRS

SEΔ497-547 = biological target: T2, SEΔ497-547 (Arabidopsis thaliana, UniProt Q9ZVD0 1-720, del497-547); assay: as above; settings: protein: recombinant; tags: N-terminal His6; vector also has inserted myc and Strep-tag II; label: 5'-biotin on strand 1; fork: 40 bp duplex; 20-nt 3' tail of strand 1 and 20-nt 5' tail of strand 2 unpaired; other end blunt
T2 sequence: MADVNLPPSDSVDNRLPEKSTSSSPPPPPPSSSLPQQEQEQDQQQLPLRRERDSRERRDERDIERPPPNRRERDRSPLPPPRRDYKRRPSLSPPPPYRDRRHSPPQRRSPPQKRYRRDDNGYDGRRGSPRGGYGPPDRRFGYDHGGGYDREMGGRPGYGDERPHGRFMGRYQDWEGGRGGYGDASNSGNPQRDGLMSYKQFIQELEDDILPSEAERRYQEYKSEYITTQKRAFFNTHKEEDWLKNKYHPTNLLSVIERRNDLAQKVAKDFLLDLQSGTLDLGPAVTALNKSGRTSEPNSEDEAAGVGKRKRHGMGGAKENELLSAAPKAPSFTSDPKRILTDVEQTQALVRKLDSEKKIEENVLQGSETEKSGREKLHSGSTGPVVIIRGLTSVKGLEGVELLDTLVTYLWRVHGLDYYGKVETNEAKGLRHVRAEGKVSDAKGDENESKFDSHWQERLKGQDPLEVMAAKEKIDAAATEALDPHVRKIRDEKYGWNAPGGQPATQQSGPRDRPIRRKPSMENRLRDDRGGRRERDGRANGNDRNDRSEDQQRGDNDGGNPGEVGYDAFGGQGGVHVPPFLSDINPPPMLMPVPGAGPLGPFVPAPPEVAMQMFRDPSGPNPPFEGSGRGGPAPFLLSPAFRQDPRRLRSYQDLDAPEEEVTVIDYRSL

Measured: binding result

Chain of DCL1;SE1-701 (Q9SP32 whole entry, stated change not applied, one chain of several): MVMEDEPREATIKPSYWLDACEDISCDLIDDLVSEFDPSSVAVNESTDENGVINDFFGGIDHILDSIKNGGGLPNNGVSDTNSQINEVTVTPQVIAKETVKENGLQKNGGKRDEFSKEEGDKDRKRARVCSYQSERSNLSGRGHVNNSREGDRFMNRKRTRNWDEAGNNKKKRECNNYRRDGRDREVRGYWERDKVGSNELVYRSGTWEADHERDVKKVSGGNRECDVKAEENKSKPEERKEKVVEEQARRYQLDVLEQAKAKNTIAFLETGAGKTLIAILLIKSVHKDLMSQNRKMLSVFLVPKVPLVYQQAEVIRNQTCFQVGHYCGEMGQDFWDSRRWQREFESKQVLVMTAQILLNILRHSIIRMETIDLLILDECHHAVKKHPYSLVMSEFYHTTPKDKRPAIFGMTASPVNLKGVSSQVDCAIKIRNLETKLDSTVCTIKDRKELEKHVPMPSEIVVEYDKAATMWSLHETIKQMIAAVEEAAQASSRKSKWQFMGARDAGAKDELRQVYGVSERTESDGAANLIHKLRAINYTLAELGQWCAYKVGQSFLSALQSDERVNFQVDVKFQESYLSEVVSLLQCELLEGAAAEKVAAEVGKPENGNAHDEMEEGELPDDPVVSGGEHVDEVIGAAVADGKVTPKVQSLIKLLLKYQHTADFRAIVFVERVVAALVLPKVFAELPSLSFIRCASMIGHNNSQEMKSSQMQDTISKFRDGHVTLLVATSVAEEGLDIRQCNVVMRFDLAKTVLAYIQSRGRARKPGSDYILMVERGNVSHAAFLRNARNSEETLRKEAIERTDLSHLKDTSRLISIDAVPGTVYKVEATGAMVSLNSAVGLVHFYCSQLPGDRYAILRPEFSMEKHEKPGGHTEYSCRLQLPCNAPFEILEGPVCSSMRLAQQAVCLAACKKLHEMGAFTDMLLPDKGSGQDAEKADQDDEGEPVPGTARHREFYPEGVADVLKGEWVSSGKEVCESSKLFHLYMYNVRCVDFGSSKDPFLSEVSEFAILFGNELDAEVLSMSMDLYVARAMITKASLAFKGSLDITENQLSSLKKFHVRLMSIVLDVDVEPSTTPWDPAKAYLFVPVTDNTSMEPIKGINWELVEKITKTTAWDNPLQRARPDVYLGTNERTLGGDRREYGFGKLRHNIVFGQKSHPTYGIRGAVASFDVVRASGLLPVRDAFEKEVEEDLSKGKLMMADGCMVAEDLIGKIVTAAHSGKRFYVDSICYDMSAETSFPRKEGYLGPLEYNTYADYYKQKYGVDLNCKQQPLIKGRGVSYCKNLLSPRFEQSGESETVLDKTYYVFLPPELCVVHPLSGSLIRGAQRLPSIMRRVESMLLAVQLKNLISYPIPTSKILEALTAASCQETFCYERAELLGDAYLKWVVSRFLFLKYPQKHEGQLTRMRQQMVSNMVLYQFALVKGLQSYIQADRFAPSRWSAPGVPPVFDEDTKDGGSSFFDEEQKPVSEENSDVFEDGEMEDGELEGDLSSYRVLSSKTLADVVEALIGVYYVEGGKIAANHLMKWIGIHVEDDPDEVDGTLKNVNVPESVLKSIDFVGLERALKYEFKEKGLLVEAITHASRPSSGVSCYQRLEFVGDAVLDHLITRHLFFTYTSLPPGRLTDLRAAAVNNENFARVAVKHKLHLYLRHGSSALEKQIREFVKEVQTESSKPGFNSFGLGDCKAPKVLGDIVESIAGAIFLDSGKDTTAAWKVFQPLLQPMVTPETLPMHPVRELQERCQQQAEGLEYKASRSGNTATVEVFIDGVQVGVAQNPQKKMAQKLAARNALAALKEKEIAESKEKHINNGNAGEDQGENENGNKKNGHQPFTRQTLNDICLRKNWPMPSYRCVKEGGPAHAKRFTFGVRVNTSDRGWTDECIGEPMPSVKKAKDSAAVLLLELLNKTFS

B1: forked-RNA (dsRNA)
RNA 1: CAACCCAAGAUAGAUCAUGCAGGCAGCUUCAUCAGAUGCCGCUCCCUCUUUUUUUCUCUA
RNA 2: GCUCCCUCUUUUUUUCUCUAGGCAUCUGAUGAAGCUGCCUGCAUGAUCUAUCUUGGGUUG
binds: DCL1;SE1-701 | SE1-701 | SEΔ497-547
